The results in this text go back to PMC3352088, “Structure and function of the transketolase from Mycobacterium tuberculosis and comparison with the human enzyme” (Open Biology, 2012).

Data set [1] relates to O=C(CO)[C@@H](O)[C@H](O)COP(=O)(O)O. In words: purified protein. The conditions noted are these: TPP, Mg2+ donor substrate; substrate cleft.
The subject of data set [2] is O=C(CO)[C@@H](O)[C@H](O)[C@H](O)COP(=O)(O)O. The data set is described as follows: purified protein. The conditions noted are these: TPP, Mg2+ donor substrate; substrate cleft.
Data set [3] concerns O=C[C@H](O)[C@H](O)[C@H](O)COP(=O)(O)O. In words: purified protein. The conditions noted are these: TPP, Mg2+ acceptor substrate; substrate cleft.
Data set [4] concerns the molecule itself. The data set is described as follows: crystal structure; TBTKT with TPP and Mg2+, space group P1, four molecules (two dimers) in the asymmetric unit, 2.5 Å; crystals from 0.1 M ammonium acetate, 0.1 M bis-tris pH 5.5, 17% w/v PEG 10 000, 22°C.

One may read the Km as the concentration of substrate that gives half-maximal velocity. On to “transketolase (TBTKT) (Mycobacterium tuberculosis H37Rv)”, for which the Km turned out to be 350 ± 120 µM in data set [1], 630 ± 90 µM in data set [2] and 820 ± 120 µM in data set [3].

B1: transketolase from Mycobacterium tuberculosis (TBTKT) (enzyme)
chain: MTTLEEISALTRPRHPDYWTEIDSAAVDTIRVLAADAVQKVGNGHPGTAMSLAPLAYTLFQRTMRHDPSDTHWLGRDRFVLSAGHSSLTLYIQLYLGGFGLELSDIESLRTWGSKTPGHPEFRHTPGVEITTGPLGQGLASAVGMAMASRYERGLFDPDAEPGASPFDHYIYVIASDGDIEEGVTSEASSLAAVQQLGNLIVFYDRNQISIEDDTNIALCEDTAARYRAYGWHVQEVEGGENVVGIEEAIANAQAVTDRPSFIALRTVIGYPAPNLMDTGKAHGAALGDDEVAAVKKIVGFDPDKTFQVREDVLTHTRGLVARGKQAHERWQLEFDAWARREPERKALLDRLLAQKLPDGWDADLPHWEPGSKALATRAASGAVLSALGPKLPELWGGSADLAGSNNTTIKGADSFGPPSISTKEYTAHWYGRTLHFGVREHAMGAILSGIVLHGPTRAYGGTFLQFSDYMRPAVRLAALMDIDTIYVWTHDSIGLGEDGPTHQPIEHLSALRAIPRLSVVRPADANETAYAWRTILARRNGSGPVGLILTRQGVPVLDGTDAEGVARGGYVLSDAGGLQPGEEPDVILIATGSEVQLAVAAQTLLADNDILARVVSMPCLEWFEAQPYEYRDAVLPPTVSARVAVEAGVAQCWHQLVGDTGEIVSIEHYGESADHKTLFREYGFTAEAVAAAAERALDN
notes: also called Rv1449; rv1449c gene product
For orientation: stoichiometry N means a count of units in the complex or per binding partner. On to B1, for which the “stoichiometry N” value in data set [4] is 2.
